Drawing on PMC10786891, “Massively parallel profiling of RNA-targeting CRISPR-Cas13d”, this text covers Kd for 28 molecules.

The chains are these.
T1: EsCas13d, nuclease-dead (Eubacterium siraeum, UniProt B0MS50, R295A;H300A;R849A;H854A)
T1 sequence: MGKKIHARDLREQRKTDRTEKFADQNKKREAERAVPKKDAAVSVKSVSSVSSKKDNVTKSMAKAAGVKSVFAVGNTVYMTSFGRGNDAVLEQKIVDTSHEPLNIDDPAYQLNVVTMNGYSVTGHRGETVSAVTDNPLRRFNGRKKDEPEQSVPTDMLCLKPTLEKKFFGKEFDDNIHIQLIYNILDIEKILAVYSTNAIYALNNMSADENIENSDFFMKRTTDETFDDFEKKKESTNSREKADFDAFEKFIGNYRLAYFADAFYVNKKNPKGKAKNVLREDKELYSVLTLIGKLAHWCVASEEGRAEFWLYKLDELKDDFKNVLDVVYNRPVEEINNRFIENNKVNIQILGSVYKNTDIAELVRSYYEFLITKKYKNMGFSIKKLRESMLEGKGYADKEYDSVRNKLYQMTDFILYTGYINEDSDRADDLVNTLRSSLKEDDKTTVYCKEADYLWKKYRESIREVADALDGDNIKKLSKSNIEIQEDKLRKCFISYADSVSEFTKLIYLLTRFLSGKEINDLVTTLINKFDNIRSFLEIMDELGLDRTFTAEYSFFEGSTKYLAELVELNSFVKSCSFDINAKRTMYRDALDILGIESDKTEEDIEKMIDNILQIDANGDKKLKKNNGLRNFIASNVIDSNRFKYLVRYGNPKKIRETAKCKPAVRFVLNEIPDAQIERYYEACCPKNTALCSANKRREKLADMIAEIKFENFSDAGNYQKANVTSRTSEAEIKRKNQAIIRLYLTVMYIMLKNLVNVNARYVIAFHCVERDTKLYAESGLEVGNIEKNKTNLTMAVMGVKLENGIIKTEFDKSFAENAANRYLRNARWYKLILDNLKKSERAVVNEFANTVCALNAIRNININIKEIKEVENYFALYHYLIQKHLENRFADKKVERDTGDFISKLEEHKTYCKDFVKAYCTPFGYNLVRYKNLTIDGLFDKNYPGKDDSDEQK

B1: target 1 U10A,A16G (mixed)
RNA 1: CACCCGUGCAAAAAUGCAGGGGUCUAAAACUGAGCGGAUAACCUCUCUAUGG
RNA 2: GGGAAUGGAUCCACAUCUACGAAUUCGUACCAUAGGGAGGUAAUCCGCUCACCGAGAUCGGAAGAGCACACGU
B2: target 1 C4A,U19G (mixed)
RNA 1: B1 RNA 1
RNA 2: B1 RNA 2 with U33G, G36A, A42U, C48A
B3: target 1 C6A,A20U (mixed)
RNA 1: B1 RNA 1
RNA 2: B1 RNA 2 with A32U, G36A, A42U, C46A
B4: target 1 insG 3' of 11,insA 3' of 7 (mixed)
RNA 1: B1 RNA 1
RNA 2: GGGAAUGGAUCCACAUCUACGAAUUCGUACCAUAGAGAGGUGUAUCACGCUCACCGAGAUCGGAAGAGCACACGU
B5: target 1 U3A,A18C (mixed)
RNA 1: B1 RNA 1
RNA 2: B1 RNA 2 with A34C, G36A, A42U, U49A
B6: target 1 insU 3' of 21,insU 3' of 1 (mixed)
RNA 1: B1 RNA 1
RNA 2: GGGAAUGGAUCCACAUCUACGAAUUCGUACCUAUAGAGAGGUUAUCCGCUCAUCCGAGAUCGGAAGAGCACACGU
B7: target 1 complement block 7-13 (mixed)
RNA 1: B1 RNA 1
RNA 2: B1 RNA 2 with G36A, G39C, G40C, U41A, A43U, U44A, C45G
B8: target 1 G5C,A16C (mixed)
RNA 1: B1 RNA 1
RNA 2: B1 RNA 2 with G36C, A42U, G47C
B9: target 1 C2U,G13U (mixed)
RNA 1: B1 RNA 1
RNA 2: B1 RNA 2 with G36A, G39U, A42U, C50U
B10: target 1 G13A,A20C (mixed)
RNA 1: B1 RNA 1
RNA 2: B1 RNA 2 with A32C, G36A, G39A, A42U
B11: target 1 C7U,U10C (mixed)
RNA 1: B1 RNA 1
RNA 2: B1 RNA 2 with G36A, A42C, C45U
B12: target 1 insG 3' of 14,insG 3' of 4 (mixed)
RNA 1: B1 RNA 1
RNA 2: B4 RNA 2 with U41G, G42U, A47C, C48G, G49C, C50G
B13: target 1 insA 3' of 13,insC 3' of 9 (mixed)
RNA 1: B1 RNA 1
RNA 2: B4 RNA 2 with G40A, U41G, G42U, U45C, C46U, A47C
B14: target 1 U3C,C6A (mixed)
RNA 1: B1 RNA 1
RNA 2: B1 RNA 2 with G36A, A42U, C46A, U49C
B15: target 1 insC 3' of 10,insG 3' of 7 (mixed)
RNA 1: B1 RNA 1
RNA 2: B4 RNA 2 with G42U, U43C, A47G
B16: target 1 insU 3' of 15,insC 3' of 8 (mixed)
RNA 1: B1 RNA 1
RNA 2: B4 RNA 2 with A38U, G39A, U41G, G42U, A47C
B17: target 1 A20U,C22U (mixed)
RNA 1: B1 RNA 1
RNA 2: B1 RNA 2 with C30U, A32U, G36A, A42U
B18: target 1 insU 3' of 22,insA 3' of 15 (mixed)
RNA 1: B1 RNA 1
RNA 2: GGGAAUGGAUCCACAUCUACGAAUUCGUACUCAUAGAGAAGGUUAUCCGCUCACCGAGAUCGGAAGAGCACACGU
B19: target 1 C2U,U19C (mixed)
RNA 1: B1 RNA 1
RNA 2: B1 RNA 2 with U33C, G36A, A42U, C50U
B20: target 1 insG 3' of 20,insG 3' of 7 (mixed)
RNA 1: B1 RNA 1
RNA 2: B6 RNA 2 with U32A, A33G, C47G, G48C, C49G, U50C, C51U, A52C, U53A
B21: target 1 C7U,U10A (mixed)
RNA 1: B1 RNA 1
RNA 2: B1 RNA 2 with G36A, C45U
B22: target 1 insA 3' of 21,insG 3' of 8 (mixed)
RNA 1: B1 RNA 1
RNA 2: B18 RNA 2 with U31C, C32A, A40G, G42U, U44A, A45U, U46G
B23: target 1 insA 3' of 19,insC 3' of 14 (mixed)
RNA 1: B1 RNA 1
RNA 2: B18 RNA 2 with U31C, C32A, A33U, U34A, A40C
B24: target 1 insG 3' of 2,insC 3' of 1 (mixed)
RNA 1: B1 RNA 1
RNA 2: B4 RNA 2 with G42U, U43A, A44U, U45C, A47G, G49U, U51G, C52A, A53C
B25: target 1 insG 3' of 22,insU 3' of 21 (mixed)
RNA 1: B1 RNA 1
RNA 2: B18 RNA 2 with U31G, A33U, U34A, A35U, G36A, A37G, G38A, A39G
B26: target 1 insC 3' of 19,insG 3' of 7 (mixed)
RNA 1: B1 RNA 1
RNA 2: B4 RNA 2 with A34C, G35A, A36G, G37A, A38G, G39A, U41G, G42U, A47G
B27: target 1 C6G,U19G (mixed)
RNA 1: B1 RNA 1
RNA 2: B1 RNA 2 with U33G, G36A, A42U, C46G
B28: target 1 insU 3' of 18,insG 3' of 2 (mixed)
RNA 1: B1 RNA 1
RNA 2: B6 RNA 2 with U32A, A33U, U34A, A35U, A52G, U53A

Residue numbers refer to the chain shown, from its start. Numbers in names are those of the source.

This data set addresses T1, EsCas13d, nuclease-dead. The experiment in a line: crRNA (strand 1, pre-loaded); Mg2+; 40 mM Tris-HCl pH 7.5, 150 mM NaCl, 6 mM MgCl2, 1 mM DTT, 0.1% Tween-20, 0.2 mg/ml BSA; 25 C; 10 min per concentration, then washed. The settings on record: tags: His6-TwinStrep-SUMO cleaved; N-terminal SNAP kept (SNAP-Surface 488); label: 3' end held by stalled T7 RNA polymerase.
As to B1, the dissociation constant (Kd) (as a rule, the free concentration of one partner at which half of the binding sites on the other are occupied at equilibrium, for simple one-to-one binding) turned out to be 38.4 ± 2.1 nM.
For B2 the value was 49 ± 19 nM.
For B3 the value was 35.2 ± 2.1 nM; for B4, 21.7 ± 1.8 nM.
For B5 the value was 50 ± 6 nM.
B6: the dissociation constant Kd is 24.2 ± 1.8 nM.
Consider B7, for which the Kd was 79 ± 16 nM.
For B8 the value was 88 ± 15 nM; for B9, 68 ± 20 nM.
For B10, binding was put at a Kd of 75 ± 29 nM.
B11 returned an equilibrium dissociation constant (Kd) of 20.9 ± 1.5 nM.
For B12 the value was 7.5 ± 0.8 nM; for B13, 8 ± 0.4 nM.
To B14 belongs 14.2 ± 1.5 nM; to B15, 16.8 ± 1.4 nM; to B16, 42 ± 6 nM.
For B17 the value was 45 ± 8 nM; for B18, 13.7 ± 3.1 nM; for B19, 21.2 ± 1.5 nM.
For B20, binding was put at a Kd of 29 ± 5 nM.
To B21 belongs 7.8 ± 0.4 nM; to B22, 29.8 ± 2.8 nM; to B23, approximately 70 nM.
For B24 the value was 10.4 ± 1.3 nM; for B25, 30 ± 2.5 nM; for B26, 24.1 ± 1.3 nM.
On to B27, for which binding was characterised by a dissociation constant (Kd) of 42 ± 5 nM.
In turn, B28 had a Kd of 26.4 ± 1.7 nM.
